In patent US20180079822A1 (UNITED STATES OF AMERICA AS REPRESENTED BY THE SECRETARY OF …, published 2018):
Positions count from the first letter of the chain named. Numbers in names are those of the source.

B1: M24E (VHH)
VHH: DVQLQASGGGLVQAGGSLRLSCAASGSTFSIKHHGWYRRAPGNQREWVAGISSENITNVAEAVKGRFTISRDNAKNTVYLQMNSLKVEDTAVYYCYAQDNDYRFLHRFWGQGTQVTVSL
notes: also called bt-M24E; anti-CD20 sdAb M24E
B2: M28C (VHH)
VHH: B1 VHH with S52N, E61G, Y94F
notes: also called bt-M28C; anti-CD20 sdAb M28C
B3: M112D (VHH)
VHH: B1 VHH with G15E, S30G, D101N
notes: also called bt-M112D; anti-CD20 sdAb M112D

target: T1, CD20-Hoc fusion protein (human; T4 phage, UniProt P11836 142-187; P18056 1-376, limits assumed); experiment: SPR
T1 construct: also called Hoc-CD20; Hoc-CD
T1 sequence (P11836 142-187, tags or fused parts left off): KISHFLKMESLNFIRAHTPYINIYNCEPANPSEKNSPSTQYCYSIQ

Point of comparison: B3, Kd 26 nM. Against it:
- B1 — 4.6-fold lower, 5.7 nM
- B2 — 1.7-fold lower, 15 nM

Point of comparison: B1, koff 0.0043 s⁻¹. Against it:
- B2 — within 1.5-fold, 0.0045 s⁻¹
- B3 — 1.6-fold higher, 0.007 s⁻¹

Point of comparison: B1, kon 750000 M⁻¹ s⁻¹. Against it:
- B2 — 2.5-fold lower, 300000 M⁻¹ s⁻¹
- B3 — 2.7-fold lower, 280000 M⁻¹ s⁻¹

target: T2, Hoc (T4 phage, UniProt P18056 1-376, limits assumed); experiment: SPR
T2 construct: Purified Hoc used as control for the fusion partner; also called outer capsid protein Hoc of T4 phage
T2 sequence (P18056 whole entry, the tested form may be a part): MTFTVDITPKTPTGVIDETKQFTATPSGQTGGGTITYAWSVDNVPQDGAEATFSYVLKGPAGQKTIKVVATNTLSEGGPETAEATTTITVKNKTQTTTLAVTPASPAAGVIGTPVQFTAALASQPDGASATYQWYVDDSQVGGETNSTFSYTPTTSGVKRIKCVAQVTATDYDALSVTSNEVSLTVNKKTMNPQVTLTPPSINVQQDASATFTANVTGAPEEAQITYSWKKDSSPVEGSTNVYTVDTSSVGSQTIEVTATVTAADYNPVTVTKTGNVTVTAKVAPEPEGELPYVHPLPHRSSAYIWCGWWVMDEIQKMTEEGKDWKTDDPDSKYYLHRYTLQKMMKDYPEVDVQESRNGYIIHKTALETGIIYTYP

Point of comparison: B1, Kd 230 nM. Against it:
- B2 — 23-fold higher, 5300 nM
- B3 — 9.1-fold higher, 2100 nM

Point of comparison: B1, koff 0.046 s⁻¹. Against it:
- B2 — 7.8-fold higher, 0.36 s⁻¹
- B3 — 7-fold higher, 0.32 s⁻¹

Point of comparison: B1, kon 200000 M⁻¹ s⁻¹. Against it:
- B2 — 2.9-fold lower, 68000 M⁻¹ s⁻¹
- B3 — within 1.5-fold, 150000 M⁻¹ s⁻¹

target: T1, CD20-Hoc fusion protein; experiment: SPR binding kinetics

Point of comparison: B2, “differential binding to CD20-Hoc fusion against Hoc” value ~1000 fold. Against it:
- B1 — the same, ~1000 fold
- B3 — lower, ~100 fold

target: T1, CD20-Hoc fusion protein; experiment: SPR; KD on Hoc divided by KD on Hoc-CD20

Point of comparison: B2, “Ratio Hoc KD/Hoc-CD20 KD” value 353 ratio. Against it:
- B1 — lower, 40 ratio
- B3 — lower, 81 ratio
